Legend:
Test in all cases: SPR; BIAcoreX; synthetic SBP peptide thiol-coupled by its N-terminal cysteine to a CM5 chip, streptavidin variant as analyte; blank flow cell as reference
Conditions in all cases: both partners purified
[1] = molecular target: T1, SAVSBPM12 streptavidin mutein (G48T) (UniProt P22629 25-183, G48T)
T1 construct: streptavidin with the mutation G48T; Secreted by means of the SacB signal peptide; Its oligomeric state was not measured; also called G48T streptavidin mutein; source: B. subtilis WB800[pSAVSBPM12], secreted, purified (biotin-agarose), denatured and renatured, then iminobiotin-agarose
T1 sequence (P22629 25-183 G72T): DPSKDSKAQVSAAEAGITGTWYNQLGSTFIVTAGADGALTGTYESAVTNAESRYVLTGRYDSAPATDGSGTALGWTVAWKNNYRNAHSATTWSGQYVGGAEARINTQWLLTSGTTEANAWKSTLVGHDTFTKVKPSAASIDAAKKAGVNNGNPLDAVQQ

wild-type streptavidin = molecular target: T2, wild-type streptavidin (UniProt P22629 25-183)
T2 construct: wild-type streptavidin, commercial; also called wt SAV; wt streptavidin; source: bought: Sigma Canada
T2 sequence (P22629 25-183): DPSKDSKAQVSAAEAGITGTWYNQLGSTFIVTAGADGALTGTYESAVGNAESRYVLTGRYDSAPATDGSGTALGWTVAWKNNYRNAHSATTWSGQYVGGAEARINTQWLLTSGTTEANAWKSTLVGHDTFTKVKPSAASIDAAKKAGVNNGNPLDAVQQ

[2] = molecular target: T3, SAVSBPM18 engineered streptavidin (S27A, G48T) (UniProt P22629 25-183, S27A | G48T)
T3 construct: streptavidin with the double mutation S27A, G48T; Secreted by means of the B. subtilis levansucrase (SacB) signal peptide; also called streptavidin SAVSBPM18; source: B. subtilis WB800[pSAVSBPM18], secreted, purified (biotin-agarose)
T3 sequence (P22629 25-183 S51A/G72T): as the sequence (P22629 25-183 G72T) above, with S27A counted along it

B1: synthetic 59-amino acid peptide with the full length SBP tag (peptide)
peptide: CGGGGSTSGGSTSGGSTSGGGMDEKTTGWRGGHVVEGLAGELEQLRARLEHHPQGQREP
notes: N-terminal cysteine for thiol coupling to the CM5 chip, then the 20-amino-acid glycine-rich linker; the limits are worked out as 1 Cys + 20 linker + 38 SBP = 59; also called SBP tag (peptide); synthetic SBP tag; source: synthetic peptide (Peptide 2.0 Inc.)
B1 gave a Kd [1] of 1.99 nM, a koff [1] of 0.00056 s⁻¹ and a kon [1] of 281000 M⁻¹ s⁻¹. It also gave a Kd (wild-type streptavidin) of 1.65 nM, a koff (wild-type streptavidin) of 0.000496 s⁻¹ and a kon (wild-type streptavidin) of 300000 M⁻¹ s⁻¹. It also gave a Kd [2] of 7.67 nM, a koff [2] of 0.000821 s⁻¹ and a kon [2] of 107000 M⁻¹ s⁻¹.
